Data published in patent publication US10081794B2, “System and method for electrospun biodegradable scaffold for bone repair” (New Jersey Institute of Technology, priority 2011, dated 2018).

System: hMSCs
Test: Serum starvation study of PDGF-BB bioactivity (cell proliferation)
Assay type: cell-based, human
Conditions: Invitrogen versus Prospec Bio
Method: At the initiation of this study, arbitrarily called “Day −2”, a vial of hMSCs was thawed, resuspended in 10% FBS DMEM, and seeded into 96 well TCPS plates at a seeding density of 12,500 cells/cm2 or 4000 cells/well. On “Day −1”, 24 hours following the initial cell seeding, the media in the wells was changed with DMEM prepared with various concentrations of FBS (Table 6). On Day 0, the media was supplemented with various concentrations of PDGF-BB (Prospec Bio or Invitrogen). PDGF-BB supplementation was done either once at Day 0, or continually for every 48-72 hours until Day 7.
At Days 4 and 7 following growth factor induction, cells were harvested for cell proliferation assay. Briefly, cell lysates (n=3 per media and PDGF-BB condition) were prepared by lysing cells in 0.1% Triton X-100. The PicoGreen reagent fluorescently labels double stranded DNA which was correlated to cell number using a standard curve. The PicoGreen reagent was added to the cell lysates and the fluorescence was detected with a plate reader at 485 nm excitation/528 nm emission.

B1: PDGF-BB from Invitrogen: Recombinant human PDGF-BB purchased from Invitrogen, used for subsequent studies (protein, UniProt P01127 82-190, looked up)
Platelet-derived growth …: SLGSLTIAEPAMIAECKTRTEVFEISRRLIDRTNANFLVWPPCVEVQRCSGCCNNRNVQCRPTQVQLRPVQVRKIEIVRKKPIFKKATVTLEDHLACKCETVAAARPVT
In the case of B1, the “bioactivity of PDGF-BB (cell proliferation studies)” value is reported as “more bioactive”.
